Patent publication US12060433B2, “CD73 inhibitor and A2A/A2B adenosine receptor inhibitor combination therapy” (Incyte Corporation, priority 2020, dated 2024)

Molecular target: T1, mouse CD73 (SEQ ID NO: 71) (Mus musculus, UniProt Q61503)
T1 construct: purchased BPS Bioscience
T1 sequence (Q61503 29-551): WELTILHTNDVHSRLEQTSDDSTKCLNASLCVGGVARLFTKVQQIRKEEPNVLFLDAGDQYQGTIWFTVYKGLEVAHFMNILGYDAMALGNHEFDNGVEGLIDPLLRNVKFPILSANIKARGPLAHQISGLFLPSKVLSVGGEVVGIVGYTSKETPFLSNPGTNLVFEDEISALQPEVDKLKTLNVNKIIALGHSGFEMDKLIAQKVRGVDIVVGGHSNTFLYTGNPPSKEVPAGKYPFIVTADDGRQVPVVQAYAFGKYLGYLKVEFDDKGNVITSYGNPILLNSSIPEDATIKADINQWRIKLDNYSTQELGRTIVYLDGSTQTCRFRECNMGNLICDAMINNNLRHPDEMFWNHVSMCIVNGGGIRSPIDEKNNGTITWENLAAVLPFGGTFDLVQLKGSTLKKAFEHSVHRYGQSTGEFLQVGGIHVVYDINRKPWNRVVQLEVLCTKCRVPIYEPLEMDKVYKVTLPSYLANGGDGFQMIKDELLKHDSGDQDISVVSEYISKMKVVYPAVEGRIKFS
Experiment: SPR (Biacore 8K) binding affinity and kinetics to mouse CD73
Method: The SPR running buffer (10 mM HEPES, 150 mM NaCl, 3 mM EDTA and 0.05% v/v Surfactant P20, pH 7.4) was prepared from 10×HBS-EP Buffer (GE Healthcare). Anti-human Fc antibodies (GE Healthcare) were immobilized via amine coupling on all sixteen flow cells of an S series sensor chip CM5 (GE Healthcare). The immobilization levels were ˜9000 RU for all flow cells. The desired capturing level of anti-CD73 antibody was achieved by flowing appropriate concentration of anti-CD73 antibody through the active flow cell of each channel. The non-cleavable ADP analogue APCP (adenosine-5′-(α,β-methylene) diphosphate) with the presence of Zn^2+ can be used to shift the CD73 conformational equilibrium from open towards closed. Therefore, recombinant CD73 was incubated with SPR running buffer in the presence of 100 μM APCP and 10 μM ZnCl2 (closed SPR running buffer) to study the binding of anti-CD73 antibody to the CD73 in the closed conformation. To achieve this, the ABA injection feature in Biacore 8K was used. For open conformation, the ABA injection sequence started with 60 seconds injection of running buffer. Then, CD73 3-fold serial dilution concentration series prepared from CD73 stock (BPS Bioscience) and running buffer were injected for 180 seconds immediately followed by running buffer for 240 seconds. […]

B1: CL25: chimeric anti-human CD73 monoclonal antibody, murine VH SEQ ID NO:26 and VL SEQ ID NO:27 with human IgG1 Fc (antibody, V domains shown)
VH: QVQLQQSGAELARPGASVKLSCRASGYTFTSYGLSWVKQRTGQGLEWIGEIYPGSGNTYYNEKFKGKATLTADKSSSTAYMELRSLTSEDSAVYFCARYDYLGSSYGFDYWGQGTTLTVSS
VL: DIVMTQSHKFMSTSVGDRVSITCKASQDVSTAVAWYQQKPGQSPKLLIYSASYRYNGVPDRFTGSGSGTDFTFTISSVQAEDLAVYYCQQHYNTPYTFGGGTKLEIK
modifications: human IgG1 Fc constant regions without entry
B1 was tested, and the KD (murine CD73, closed conformation (merged ka/kd/KD cell)) was “No Binding” and the KD (murine CD73, open conformation (merged ka/kd/KD cell where no binding)) was “No Binding”.
